Substitutions are numbered along the chain they refer to.
B1: Peptide 1 (peptide)
peptide: YMESLHMQGEIENQI
notes: linear ROR1 ECD peptide
B2: B1 G2 (humanised/grafted B1) with His6myc tag (VNAR)
VNAR: TRVDQSPSSLSASVGDRVTITCVLTGANYGLASTYWYRKNPGSSNQERISISGRYSESVNKRTMSFTLTISSLQPEDSATYYCRAYPWGAGAPWLVQWYDGAGTKVEIKQ
notes: VNAR
B3: B1 G1 (humanised/grafted B1) with His6myc tag (VNAR)
VNAR: B2 VNAR with Q46K, R48Q, R62G, M64K
notes: VNAR
B4: B1 humanised V5 with His6myc tag (VNAR)
VNAR: B2 VNAR with T1A, R2S, L24V, S33A, R84K
notes: VNAR; also called B1V5
B5: B1 humanised V7 with His6myc tag (VNAR)
VNAR: B2 VNAR with T1A, R2S, L10A, V18L, L24V, S33A, R84K, V106L, I108V
notes: VNAR; also called B1V7
B6: P3A1 V1 dimer (VNAR)
chain: TRVDQSPSSLSASVGDRVTITCVLTDTSYGLYSTSWFRKNPGTTDWERMSIGGRYVESVNKGAKSFTLTISSLQPEDFATYYCKAREARHPWLRQWYDGAGTKVEIKGGGGSGGGGSGGGGSGGGGSGGGGSTRVDQSPSSLSASVGDRVTITCVLTDTSYGLYSTSWFRKNPGTTDWERMSIGGRYVESVNKGAKSFTLTISSLQPEDFATYYCKAREARHPWLRQWYDGAGTKVEIKQASGAHHHHHHGAEFEQKLISEEDL
B7: P3A1 G2 dimer (VNAR)
chain: B6 chain with S35Y, F37Y, V56S, F78S, K84R, S167Y, F169Y, V188S, F210S, K216R
notes: humanised VNAR dimer
B8: P3A1 G1 dimer (VNAR)
chain: TRVDQSPSSLSASVGDRVTITCVLTDTSYGLYSTYWYRKNPGSSNKEQISISGRYSESVNKGTKSFTLTISSLQPEDSATYYCRAREARHPWLRQWYDGAGTKVEIKGGGGSGGGGSGGGGSGGGGSGGGGSTRVDQSPSSLSASVGDRVTITCVLTDTSYGLYSTYWYRKNPGSSNKEQISISGRYSESVNKGTKSFTLTISSLQPEDSATYYCRAREARHPWLRQWYDGAGTKVEIKQASGAHHHHHHGAEFEQKLISEEDL
notes: humanised VNAR dimer
B9: D3 ADV1 dimer (VNAR)
chain: ASVNQSPSSLSASVGDRVTITCVLTDTSYGLYSTSWFRKNPGTTDWERMSIGGRYSESVNKGAKSFTLTISSLQPEDSATYYCKAQSGMAISTGSGHGYNWYDGAGTKVEIKGGGGSGGGGSGGGGSGGGGSGGGGSASVNQSPSSLSASVGDRVTITCVLTDTSYGLYSTSWFRKNPGTTDWERMSIGGRYSESVNKGAKSFTLTISSLQPEDSATYYCKAQSGMAISTGSGHGYNWYDGAGTKVEIKQASGAHHHHHHGAEFEQKLISEEDL
notes: Listing names it 'D3V1 dimer'; also called D3V1 dimer
B10: D3 ADV2 dimer (VNAR)
chain: B9 chain with A1T, S2R, N4D, A138T, S139R, N141D
notes: Listing names it 'D3V2 dimer'; also called D3V2 dimer
B11: D3 humanised EL V2 with His6myc tag (VNAR)
VNAR: ASVNQSPSSLSASVGDRVTITCVLTDTSYGLYSTSWFRKNPGTTDWERMSIGGRYVESVNKRAKSFTLTISSLQPEDFATYYCKAQSGMAISTGSGHGYNWYDGAGTKVEIKQ
notes: VNAR; also called D3 EL V2
B12: D3 humanised ADV2 with His6myc tag (VNAR)
VNAR: B11 VNAR with A1T, S2R, N4D, V56S, R62G, F78S
notes: VNAR; also called D3 AD V2
B13: D3 humanised EL V4 with His6myc tag (VNAR)
VNAR: B11 VNAR with F37Y, R38Q, K39Q, N40K
notes: VNAR; also called D3 EL V4
B14: ROR1 2A2 mAb (BioLegend) (antibody, V domains shown)
VH: QVQLQQSGAELVRPGASVTLSCKASGYTFSDYEMHWVIQTPVHGLEWIGAIDPETGGTAYNQKFKGKAILTADKSSSTAYMELRSLTSEDSAVYYCTGYYDYDSFTYWGQGTLVTVSA
VL: DIVMTQSQKIMSTTVGDRVSITCKASQNVDAAVAWYQQKPGQSPKLLIYSASNRYTGVPDRFTGSGSGTDFTLTISNMQSEDLADYFCQQYDIYPYTFGGGTKLEIK
B15: UC961 based mAb (antibody, human IgG1, kappa, V domains shown)
VH: QVQLQESGPGLVKPSQTLSLTCTVSGYAFTAYNIHWVRQAPGQGLEWMGSFDPYDGGSSYNQKFKDRLTISKDTSKNQVVLTMTNMDPVDTATYYCARGWYYFDYWGHGTLVTVSS
VL: DIVMTQTPLSLPVTPGEPASISCRASKSISKYLAWYQQKPGQAPRLLIYSGSTLQSGIPPRFSGSGTGTDFTLTINNIESEDAAYYFCQQHDESPYTFGEGTKVEIKR
notes: also called UC961-like; mAb based on UC-961
B16: BA11 (humanised HSA-binding VNAR) (VNAR)
VNAR: TRVDQSPSSLSASVGDRVTITCVLTDTSYPLYSTYWYRKNPGSSNKEQISISGRYSESVNKGTKSFTLTISSLQPEDSATYYCRAMSTNIWTGDGAGTKVEIK
notes: VNAR
B17: BA11-aminoxy (VNAR)
VNAR: B16 VNAR
modifications: C-terminal aminoxy (intein cleavage with dioxyamine)
B18: BA11-oxime-fluorescein (VNAR)
VNAR: B16 VNAR
modifications: C-terminal oxime-linked benzaldehyde-peg-fluorescein
B19: BA11 C-terminal cysteine derivative (VNAR)
VNAR: B16 VNAR
modifications: additional C-terminal cysteine (intein cleavage with cysteine)
notes: also called BA11-cys
B20: BA11-C terminal cysteine-maleimide-peg-fluorescein (VNAR)
VNAR: B16 VNAR
modifications: C-terminal cysteine conjugated to maleimide-peg-fluorescein
notes: also called BA11-cys-mal-Fl
B21: BA11 C-terminal thiol derivative (VNAR)
VNAR: B16 VNAR
modifications: C-terminal thiol (intein cleavage with cysteamine)
notes: also called BA11-SH
B22: BA11-C term thiol-maleimide-peg-fluorescein (VNAR)
VNAR: B16 VNAR
modifications: C-terminal thiol conjugated to maleimide-peg-fluorescein
notes: also called BA11-S-mal-Fl

Tests used:
D3-[G4S]5-D3 his myc = biological target: T1, D3-[G4S]5-D3 his myc; test: competition ELISA: D3-D3 pre-incubated with peptide, residual binding to coated huROR1-Fc
T1 construct: VNAR homodimer by genetic fusion; also called D3-D3; D3 dimer

[1] = biological target: T2, B1 VNAR with C-terminal His6Myc tag; test: competition ELISA: B1 pre-incubated with peptide, residual binding to coated huROR1-Fc
T2 construct: VNAR, E. coli; also called B1 his myc; B1HisMyc monomer
Procedure: (§1) In brief, ELISA method as follows. Wells coated with 100 ng antigen and incubated, covered, at room temperature for 2 hr. Plates washed 3×400 ul per well with PBST (PBS+0.05% Tween 20 (v/v)), then blocked with 4% skimmed milk powder (w/v) in PBST for 1 hour at 37° C. Plates washed as before plus additional wash in PBS alone. Binding proteins were diluted in 4% milk PBST and incubated overnight at 4° C. Plates washed 3× with PBST, 3×PBS and binding detected using appropriate secondary detection antibody in 4% milk PBST, room temperature 1 hour. […] Rabbit anti-Mouse IgG H&L, HRP (Abcam #ab97046) [0360] Mouse anti-polyHis, HRP (Sigma #A7058)
(§2) Competition assays were conducted as described in the methods with all four peptides reconstituted in PBS.

P3A1 his myc = biological target: T3, P3A1 his myc; test: competition ELISA: P3A1 pre-incubated with peptide, residual binding to coated huROR1-Fc
T3 construct: VNAR; also called P3A1 6xHis myc
Procedure: as §1, §2
T3 VNAR: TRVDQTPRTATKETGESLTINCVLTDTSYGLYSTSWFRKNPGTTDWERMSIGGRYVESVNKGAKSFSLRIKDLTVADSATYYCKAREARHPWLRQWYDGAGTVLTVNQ

D3 his myc = biological target: T4, D3 his myc; test: competition ELISA: D3 pre-incubated with peptide, residual binding to coated huROR1-Fc
T4 construct: VNAR; made in E. coli and in HEK293 (expression system under assay); also called D3 WT

[2] = biological target: T5, human ROR1-hFc fusion protein (extracellular domain) (human); test: SPR, human ROR1 ECD-Fc on chip;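 note: SPR binding kinetics of VNAR and VNAR-Fc molecules run at a range of concentrations over immobilised target, rate and affinity constants fitted with QDat software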
T5 construct: Whole entry 'human ROR1-Fc (CHO)'; also called hROR1; huROR1-Fc
Procedure: Binding kinetics were determined using a Pioneer Surface Plasmon Resonance (SPR) instrument (SensiQ/Pall ForteBio). […] VNARs and VNAR-Fc molecules were tested at various concentrations and the Ka (M⁻¹s⁻¹), Kd (s⁻¹) and KD (nM) values were determined using QDat software (SensiQ/Pall ForteBio).
Thermal stability assays used Applied Biosystems StepOne Real Time PCR system with the Protein Thermal Shift™ dye kit (Thermo). The assay mix was set up so that the protein was at a final concentration of 20 OA in 20 μL. 5 μL of Thermal Shift™ buffer was added alongside 2.5 uL 8× Thermal Shift™ Dye. Assays were run using the StepOne software and data analysed using Protein Thermal Shift™ software. All data are from first derivative analysis.

[3] = biological target: T6, recombinant human ROR1 (hROR1), construct not stated (human, UniProt Q01973 30-403, limits assumed); test: SPR, hROR1 on chip
[4] = biological target: T6, recombinant human ROR1 (hROR1), …; test: SPR, hROR1 on chip with competitor B1 pre-captured
Procedure: (§3) Competition of binding studies were completed using SPR. […] FC2 was used as the reference channel. […] Binding kinetics were determined using QDat software.

[5] = biological target: T6, recombinant human ROR1 (hROR1), …; test: SPR, hROR1 on chip; remark: listed apart in the source
Procedure: as §3

[6] = biological target: T6, recombinant human ROR1 (hROR1), …; test: SPR, hROR1 on chip with competitor P3A1 dimer pre-captured
Procedure: as §3

rat serum albumin [7] = biological target: T7, rat serum albumin (rat, UniProt P02770 25-608); test: SPR, albumin on chip, pH 7.4;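 note: Human, mouse, rat and cynomolgus serum albumins amine-coupled to carboxyl sensor chips, with a hen egg lysozyme surface measured in parallel as negative control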
T7 construct: also called RSA
Procedure: (§4) Binding kinetics were determined using SPR. The serum albumins or negative control protein were immobilised to COOH₂ chips by amine coupling using optimised buffer conditions as follows: —Human serum albumin (HSA) and mouse serum albumin (MSA) were immobilised in sodium acetate pH5 buffer. Rat serum albumin (RSA) and cynomolgous serum albumin (CSA) in sodium acetate pH 4.5 buffer and the negative control hen egg lysozyme (HEL) protein was immobilised in sodium acetate pH 5.5 buffer.
(§5) For each analyte test experiment, binding to the chosen serum albumin protein was assayed alongside the negative control protein (HEL).

human serum albumin [8] = biological target: T8, human serum albumin (human, UniProt P02768 25-609); test: SPR, albumin on chip, pH 7.4;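 note: Human, mouse, rat and cynomolgus serum albumins amine-coupled to carboxyl sensor chips, with a hen egg lysozyme surface measured in parallel as negative control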
T8 construct: also called HSA
Procedure: as §4, §5

mouse serum albumin [9] = biological target: T9, mouse serum albumin (mouse, UniProt P07724 25-608); test: SPR, albumin on chip, pH 7.4;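 note: Human, mouse, rat and cynomolgus serum albumins amine-coupled to carboxyl sensor chips, with a hen egg lysozyme surface measured in parallel as negative control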
T9 construct: also called MSA
Procedure: as §4, §5

[10] = biological target: T10, cynomolgous serum albumin (cynomolgous, UniProt A2V9Z4 25-608); test: SPR, albumin on chip, pH 7.4;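 note: Human, mouse, rat and cynomolgus serum albumins amine-coupled to carboxyl sensor chips, with a hen egg lysozyme surface measured in parallel as negative control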
T10 construct: also called CSA; Cyano
Procedure: as §4, §5

rat serum albumin [11] = biological target: T7, rat serum albumin; test: SPR, albumin on chip, pH 5.5;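 note: albumins amine-coupled onto carboxyl SPR chips, with each analyte also run over a hen egg lysozyme surface as negative control, Kd derived from binding kinetics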
Procedure: as §4, §5

human serum albumin [12] = biological target: T8, human serum albumin; test: SPR, albumin on chip, pH 5.5;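 note: albumins amine-coupled onto carboxyl SPR chips, with each analyte also run over a hen egg lysozyme surface as negative control, Kd derived from binding kinetics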
Procedure: as §4, §5

mouse serum albumin [13] = biological target: T9, mouse serum albumin; test: SPR, albumin on chip, pH 5.5;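 note: albumins amine-coupled onto carboxyl SPR chips, with each analyte also run over a hen egg lysozyme surface as negative control, Kd derived from binding kinetics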
Procedure: as §4, §5

[14] = biological target: T10, cynomolgous serum albumin; test: SPR, albumin on chip, pH 5.5;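 note: albumins amine-coupled onto carboxyl SPR chips, with each analyte also run over a hen egg lysozyme surface as negative control, Kd derived from binding kinetics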
Procedure: as §4, §5

T10 sequence (A2V9Z4 25-608 limits assumed): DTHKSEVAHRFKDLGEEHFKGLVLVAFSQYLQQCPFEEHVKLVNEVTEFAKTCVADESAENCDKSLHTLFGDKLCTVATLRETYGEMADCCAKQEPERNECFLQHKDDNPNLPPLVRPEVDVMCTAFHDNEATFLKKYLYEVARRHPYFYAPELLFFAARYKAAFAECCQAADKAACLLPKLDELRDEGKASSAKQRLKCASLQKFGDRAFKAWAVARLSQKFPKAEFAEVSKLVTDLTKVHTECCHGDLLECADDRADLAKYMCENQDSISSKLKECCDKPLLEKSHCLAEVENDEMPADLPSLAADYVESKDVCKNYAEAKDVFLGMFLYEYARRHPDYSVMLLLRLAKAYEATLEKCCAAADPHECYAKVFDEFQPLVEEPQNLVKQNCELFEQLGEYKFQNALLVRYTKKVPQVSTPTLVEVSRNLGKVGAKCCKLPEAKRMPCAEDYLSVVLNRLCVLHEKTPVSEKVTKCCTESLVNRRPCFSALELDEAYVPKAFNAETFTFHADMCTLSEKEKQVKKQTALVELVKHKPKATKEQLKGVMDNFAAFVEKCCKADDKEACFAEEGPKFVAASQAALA
T6 sequence (Q01973 30-403 limits assumed): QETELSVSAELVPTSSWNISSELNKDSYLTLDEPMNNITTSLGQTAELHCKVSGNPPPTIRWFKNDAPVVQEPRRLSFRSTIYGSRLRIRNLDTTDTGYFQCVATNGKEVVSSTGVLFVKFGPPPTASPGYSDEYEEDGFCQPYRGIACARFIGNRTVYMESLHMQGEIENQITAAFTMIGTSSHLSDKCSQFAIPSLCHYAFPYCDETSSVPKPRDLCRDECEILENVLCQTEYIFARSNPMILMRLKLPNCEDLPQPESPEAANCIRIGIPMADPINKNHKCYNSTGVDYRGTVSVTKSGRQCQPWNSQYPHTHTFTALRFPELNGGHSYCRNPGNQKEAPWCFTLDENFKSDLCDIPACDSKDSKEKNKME
T5 sequence (chain, as listed by the source limits assumed): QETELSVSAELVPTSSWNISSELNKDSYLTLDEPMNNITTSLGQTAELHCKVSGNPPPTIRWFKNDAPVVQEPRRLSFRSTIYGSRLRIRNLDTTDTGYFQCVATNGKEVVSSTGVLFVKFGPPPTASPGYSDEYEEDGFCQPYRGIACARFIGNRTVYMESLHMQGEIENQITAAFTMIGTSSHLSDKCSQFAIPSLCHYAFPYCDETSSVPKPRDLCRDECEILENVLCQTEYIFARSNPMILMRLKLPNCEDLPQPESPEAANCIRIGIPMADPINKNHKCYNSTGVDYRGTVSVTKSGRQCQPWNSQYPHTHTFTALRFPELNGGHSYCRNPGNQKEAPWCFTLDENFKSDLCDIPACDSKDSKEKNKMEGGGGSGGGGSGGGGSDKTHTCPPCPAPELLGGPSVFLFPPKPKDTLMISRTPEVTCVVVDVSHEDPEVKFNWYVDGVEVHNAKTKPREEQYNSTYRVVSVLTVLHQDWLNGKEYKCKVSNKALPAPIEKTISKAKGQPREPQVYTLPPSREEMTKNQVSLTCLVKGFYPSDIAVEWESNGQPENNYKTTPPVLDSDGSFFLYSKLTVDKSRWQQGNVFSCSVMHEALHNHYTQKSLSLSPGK
T7 sequence (P02770 25-608 limits assumed): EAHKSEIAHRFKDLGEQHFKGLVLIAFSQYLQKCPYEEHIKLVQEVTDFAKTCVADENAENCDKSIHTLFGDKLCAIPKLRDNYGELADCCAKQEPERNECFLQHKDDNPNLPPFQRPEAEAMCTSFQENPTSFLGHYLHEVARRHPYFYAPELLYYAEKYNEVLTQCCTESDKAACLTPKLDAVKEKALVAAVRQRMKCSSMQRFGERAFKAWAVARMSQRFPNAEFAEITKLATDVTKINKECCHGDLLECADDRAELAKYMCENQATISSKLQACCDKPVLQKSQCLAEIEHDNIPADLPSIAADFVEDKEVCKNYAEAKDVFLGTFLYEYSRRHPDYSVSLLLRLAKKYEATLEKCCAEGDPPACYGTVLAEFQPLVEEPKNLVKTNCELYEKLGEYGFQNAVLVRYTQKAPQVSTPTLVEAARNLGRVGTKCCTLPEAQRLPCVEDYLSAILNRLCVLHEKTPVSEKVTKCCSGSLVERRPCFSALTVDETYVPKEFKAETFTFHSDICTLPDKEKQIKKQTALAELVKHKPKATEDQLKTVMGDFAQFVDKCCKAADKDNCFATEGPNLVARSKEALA
T9 sequence (P07724 25-608 limits assumed): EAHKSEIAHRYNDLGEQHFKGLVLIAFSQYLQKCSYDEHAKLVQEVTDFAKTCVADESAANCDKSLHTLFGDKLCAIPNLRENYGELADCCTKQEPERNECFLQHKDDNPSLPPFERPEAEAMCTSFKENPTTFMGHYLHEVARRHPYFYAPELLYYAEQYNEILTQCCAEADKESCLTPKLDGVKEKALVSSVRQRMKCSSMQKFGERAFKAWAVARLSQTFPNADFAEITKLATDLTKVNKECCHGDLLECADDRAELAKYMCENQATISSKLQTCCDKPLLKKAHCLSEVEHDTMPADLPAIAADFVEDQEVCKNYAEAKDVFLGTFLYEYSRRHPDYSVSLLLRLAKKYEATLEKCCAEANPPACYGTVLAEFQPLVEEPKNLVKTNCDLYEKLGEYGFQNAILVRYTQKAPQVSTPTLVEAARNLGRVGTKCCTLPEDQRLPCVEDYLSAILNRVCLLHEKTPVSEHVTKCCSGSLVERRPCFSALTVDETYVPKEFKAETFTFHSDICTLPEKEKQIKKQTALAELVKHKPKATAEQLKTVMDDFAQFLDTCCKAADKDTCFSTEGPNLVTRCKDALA

| Binder | Kd [2] [nM] | koff [2] [s⁻¹] | kon [2] [M⁻¹ s⁻¹] | Kd (rat serum albumin [7]) [nM] | Kd (human serum albumin [8]) [nM] | Kd [10] [nM] | Kd (mouse serum albumin [13]) [nM] | other results |
| --- | --- | --- | --- | --- | --- | --- | --- | --- |
| B1 |  |  |  |  |  |  |  | binding result (D3-[G4S]5-D3 his myc): no binding; binding result [1]: no binding (tested: 10 uM); binding result (P3A1 his myc): no binding (tested: about 500 uM as the axis is labelled); binding result (D3 his myc): no binding |
| B2 | 45.9 | 0.0079 | 185000 |  |  |  |  |  |
| B3 | 82.8 | 0.0162 | 220000 |  |  |  |  |  |
| B4 | 0.74 | 3.85e-05 | 52000 |  |  |  |  |  |
| B5 | 0.77 | 5.54e-05 | 77400 |  |  |  |  |  |
| B6 | 0.18 | 0.000846 | 4.78e+06 |  |  |  |  |  |
| B7 | 0.77 | 0.00119 | 1.88e+06 |  |  |  |  |  |
| B8 | 0.43 | 0.00147 | 4.3e+06 |  |  |  |  |  |
| B9 | 8.92 | 0.00567 | 636000 |  |  |  |  |  |
| B10 | 26.2 | 0.016 | 609000 |  |  |  |  |  |
| B11 | 18.9 | ~0.0163 | 1.85e+06 |  |  |  |  |  |
| B12 | 51.6 | 0.00236 | 45800 |  |  |  |  |  |
| B13 | 58.5 | ~0.0545 | 1.38e+06 |  |  |  |  |  |
| B14 |  |  |  |  |  |  |  | Kd [3]: 0.233 nM; koff [3]: 0.000342 s⁻¹; kon [3]: 1.47e+06 M⁻¹ s⁻¹; Kd [4]: 0.101 nM; koff [4]: 8.47e-05 s⁻¹; kon [4]: 835000 M⁻¹ s⁻¹; Kd [5]: 0.21 nM; koff [5]: 0.000211 s⁻¹; kon [5]: 979000 M⁻¹ s⁻¹; Kd [6]: 0.231 nM; koff [6]: 0.000322 s⁻¹; kon [6]: 1.39e+06 M⁻¹ s⁻¹ |
| B15 |  |  |  |  |  |  |  | Kd [3]: 0.078 nM; koff [3]: 0.000451 s⁻¹; kon [3]: 5.77e+06 M⁻¹ s⁻¹; Kd [6]: 0.081 nM; koff [6]: 0.000444 s⁻¹; kon [6]: 5.48e+06 M⁻¹ s⁻¹ |
| B16 |  |  |  | 2.97 | 0.636 | 3.36 | 4.8 | Kd (mouse serum albumin [9]): 1.9 nM; Kd (rat serum albumin [11]): 4.39 nM; Kd (human serum albumin [12]): 0.91 nM; Kd [14]: 1.11 nM |
| B17 |  |  |  | 10.8 | 1.12 | 7.97 | 21.2 | Kd (mouse serum albumin [9]): 8.77 nM |
| B18 |  |  |  | 5.72 | 0.677 | 1.75 | 7.44 | Kd (mouse serum albumin [9]): 4.24 nM; Kd (rat serum albumin [11]): 5.93 nM; Kd (human serum albumin [12]): 1.3 nM; Kd [14]: 5.54 nM |
| B19 |  |  |  | 3.37 | 0.756 | 2.1 | 3.77 | Kd (rat serum albumin [11]): 3.21 nM; Kd (human serum albumin [12]): 1.96 nM |
| B20 |  |  |  | 4.78 | 1.1 | 3.68 | 13.6 | Kd (mouse serum albumin [9]): 5.06 nM; Kd (rat serum albumin [11]): 7.24 nM; Kd (human serum albumin [12]): 3.16 nM; Kd [14]: 8.21 nM |
| B21 |  |  |  | 7.67 | 0.774 | 3.41 | 11.1 | Kd (mouse serum albumin [9]): 4.76 nM; Kd (rat serum albumin [11]): 12.1 nM; Kd (human serum albumin [12]): 2.23 nM; Kd [14]: 6.74 nM |
| B22 |  |  |  | 5.3 | 1.42 | 2.3 | 10.6 | Kd (mouse serum albumin [9]): 5 nM; Kd (rat serum albumin [11]): 7.92 nM; Kd (human serum albumin [12]): 1.91 nM; Kd [14]: 7.01 nM |
